Measured values as given in the supplement of paper PMC10126150.
± gives the standard deviation of the averaged measurements.

System: ATP
Assay: switch fluorescence ratio, 500 uM ATP over buffer (Cy3 cluster intensity, sum of 5 cycles each) (fold (ratio)); higher = stronger signal-on switching upon ATP binding; sequences stand for … in TCGTCGGCAGCGTCAGATGTGTATAAGAGACAGTTTTTTTTTTTTTTTTTTTTTTTTT…TC
Settings: aptamer strand: ATP DNA aptamer (quencher-CACCTGGGGGAGTATTGCGGAGGAAGG + anchor), 100 nM annealed; ATP concentration: 500 uM
How it was run: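 Clusters carrying Cy3-labelled switching strands on a modified Illumina MiSeq flow-cell were annealed to 100 nM quencher-labelled ATP aptamer and imaged in selection buffer. They were imaged again after 15 min with 500 uM ATP at 22 °C, over five buffer/ATP cycles with NaOH stripping and re-annealing in between. For each cluster, the fluorescence ratio is the summed Cy3 intensity of the target cycles divided by that of the buffer cycles, averaged per switch-domain sequence. Clusters outside 100-1000 RFU were left out.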
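Also: ATP exposure 15 min at 22 °C before imaging.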

Sequence | switch fluorescence ratio
TTAAAAAATT | 1.02 ± 0.039
TTAAAAACCT | 1.65 ± 0.62
TTAAAAAGTG | 1.02 ± 0.068
TTAAAAATCG | 1.02 ± 0.037
TTAAAAATGT | 0.958 ± 0.069
TTAAAACTAT | 1.015 ± 0.0089
TTAAAAGAGG | 1.01 ± 0.014
TTAAAAGGTC | 1.027 ± 0.0083
TTAAAATCAC | 1.09 ± 0.077
TTAAAATCAG | 1.01 ± 0.027
TTAAAATCGC | 0.957 ± 0.022
TTAAAATTCT | 1.04 ± 0.06
TTAAACCGCT | 1.08 ± 0.053
TTAAACGGAC | 1.36 ± 0.021
TTAAACGGTA | 1.03 ± 0.029
TTAAACTTAT | 1.047 ± 0.0024
TTAAAGATTG | 0.987 ± 0.014
TTAAAGATTT | 1.07 ± 0.098
TTAAAGCACG | 1.07 ± 0.023
TTAAAGGCGT | 0.982 ± 0.021
TTAAAGGGTA | 0.992 ± 0.054
TTAAAGGTGG | 0.984 ± 0.042
TTAAATATGG | 1.02 ± 0.033
TTAAATGAAT | 0.991 ± 0.022
TTAAATGTGT | 1.02 ± 0.018

Sequence | switch fluorescence ratio
TTAAATGTTT | 0.994 ± 0.015
TTAAATTGGT | 0.99 ± 0.025
TTAAATTTGG | 1.01 ± 0.027
TTAACAAGGA | 1.018 ± 0.0085
TTAACCAGCA | 1.05 ± 0.032
TTAACCCGCC | 1.16 ± 0.14
TTAACGGTCG | 1.02 ± 0.072
TTAACGTGTG | 0.975 ± 0.029
TTAACTTGAG | 0.9831 ± 0.0047
TTAAGAAGCC | 0.987 ± 0.049
TTAAGACTTT | 1.02 ± 0.032
TTAAGATATT | 0.9797 ± 0.0066
TTAAGATGAG | 0.961 ± 0.035
TTAAGATTCC | 1.1 ± 0.028
TTAAGATTTA | 0.9933 ± 0.0077
TTAAGCACCT | 1.304 ± 0.013
TTAAGCCCAT | 1 ± 0.011
TTAAGCCGGT | 1.04 ± 0.036
TTAAGCGGCG | 0.992 ± 0.016
TTAAGGCCAC | 1.034 ± 0.0055
TTAAGGCCGG | 1.03 ± 0.025
TTAAGGCGCT | 0.976 ± 0.019
TTAAGGCGGA | 1.04 ± 0.023
TTAAGGCTTT | 0.984 ± 0.025
TTAAGGGAAA | 1.02 ± 0.02

Sequence | switch fluorescence ratio
TTAAGGGGAA | 1.06 ± 0.063
TTAAGGGTAA | 0.967 ± 0.047
TTAAGGGTAT | 1 ± 0.011
TTAAGGGTGT | 1.02 ± 0.04
TTAAGGTCCG | 0.987 ± 0.047
TTAAGGTGTG | 1.02 ± 0.041
TTAAGGTTAG | 0.976 ± 0.024
TTAAGTCAAG | 0.98687 ± 0.00044
TTAAGTCCGC | 1.17 ± 0.034
TTAAGTGGAA | 0.997 ± 0.049
TTAAGTGTAC | 1.03 ± 0.026
TTAAGTGTGG | 0.973 ± 0.031
TTAAGTGTTT | 1 ± 0.022
TTAAGTTAGC | 1.06 ± 0.045
TTAAGTTGAG | 0.983 ± 0.021
TTAAGTTTGT | 0.994 ± 0.022
TTAAGTTTTG | 1.016 ± 0.0078
TTAATAAAC | 1.01 ± 0.017
TTAATAAAGG | 1.02 ± 0.018
TTAATAACGG | 1.04 ± 0.06
TTAATAAGCT | 0.978 ± 0.022
TTAATAAGTG | 0.964 ± 0.028
TTAATAATTC | 0.996 ± 0.032
TTAATACCGC | 1.12 ± 0.022
TTAATATGCT | 0.997 ± 0.049

Sequence | switch fluorescence ratio
TTAATATGGT | 0.99 ± 0.04
TTAATATTTT | 0.985 ± 0.026
TTAATCTAGC | 0.991 ± 0.021
TTAATCTGGG | 0.992 ± 0.016
TTAATCTTTC | 1.09 ± 0.05
TTAATGAGTG | 0.99 ± 0.015
TTAATGGTTG | 0.975 ± 0.032
TTAATGGTTT | 1.11 ± 0.17
TTAATGTGGC | 0.986 ± 0.015
TTAATTAAGT | 0.987 ± 0.04
TTAATTACCA | 0.984 ± 0.029
TTAATTATCT | 1.01 ± 0.051
TTAATTCGCT | 1.04 ± 0.098
TTAATTGTTC | 1.06 ± 0.068
TTAATTTAAA | 0.9752 ± 0.0031
TTAATTTGTC | 1.03 ± 0.061
TTAATTTTTT | 0.995 ± 0.037
TTACAAAATA | 1.03 ± 0.048
TTACAAATTT | 0.9647 ± 0.0066
TTACAAGATT | 1.03 ± 0.0047
TTACACGAGA | 1.054 ± 0.0057
TTACACGTTC | 1.03 ± 0.018
TTACATATGA | 1.04 ± 0.016
TTACATTTTT | 1.05 ± 0.06
TTACCCCCGT | 1.56 ± 0.079
